*1 amine or outer side, *2 acyl side, *3 side chain or, on linkers, in order; H or OH if unused. Side-chain parts run from the residue outwards. The star is where a group is joined. C18 diacid = O=C(O)CCCCCCCCCCCCCCCCC(=O)*; γGlu = O=C(O)[C@H](CCC(=O)[*:2])N[*:1]; Isovaleryl = CC(C)CC(=O)*; Ahx = NCCCCCC(=O)O
T1: human NPY2 receptor (human, UniProt P49146 1-381)
T1 sequence (looked up): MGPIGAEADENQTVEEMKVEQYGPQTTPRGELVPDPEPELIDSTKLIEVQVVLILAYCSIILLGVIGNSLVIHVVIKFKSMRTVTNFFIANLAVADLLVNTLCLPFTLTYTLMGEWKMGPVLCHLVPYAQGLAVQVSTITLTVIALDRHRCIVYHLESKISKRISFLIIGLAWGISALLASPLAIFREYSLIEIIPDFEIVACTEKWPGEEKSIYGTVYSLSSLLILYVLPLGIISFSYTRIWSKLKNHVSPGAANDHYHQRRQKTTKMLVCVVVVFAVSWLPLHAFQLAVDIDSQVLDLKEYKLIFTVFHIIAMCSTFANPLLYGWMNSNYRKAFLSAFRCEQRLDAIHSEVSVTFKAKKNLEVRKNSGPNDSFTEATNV

T2: human NPY5 receptor (human, UniProt Q15761 1-445)
T2 sequence (looked up): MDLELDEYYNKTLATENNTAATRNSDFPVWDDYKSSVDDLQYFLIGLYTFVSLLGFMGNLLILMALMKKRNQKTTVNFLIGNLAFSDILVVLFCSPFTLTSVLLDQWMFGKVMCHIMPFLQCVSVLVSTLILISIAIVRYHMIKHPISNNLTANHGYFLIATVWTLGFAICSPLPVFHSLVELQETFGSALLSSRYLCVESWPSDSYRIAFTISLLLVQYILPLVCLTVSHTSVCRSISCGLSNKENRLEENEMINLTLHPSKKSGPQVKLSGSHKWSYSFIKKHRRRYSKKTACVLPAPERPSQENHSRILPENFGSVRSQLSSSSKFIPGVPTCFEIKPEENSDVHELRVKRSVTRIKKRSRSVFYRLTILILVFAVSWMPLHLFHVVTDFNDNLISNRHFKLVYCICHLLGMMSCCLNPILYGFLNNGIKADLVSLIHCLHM

T3: human NPY1 receptor (human, UniProt P25929 1-384)
T3 sequence (looked up): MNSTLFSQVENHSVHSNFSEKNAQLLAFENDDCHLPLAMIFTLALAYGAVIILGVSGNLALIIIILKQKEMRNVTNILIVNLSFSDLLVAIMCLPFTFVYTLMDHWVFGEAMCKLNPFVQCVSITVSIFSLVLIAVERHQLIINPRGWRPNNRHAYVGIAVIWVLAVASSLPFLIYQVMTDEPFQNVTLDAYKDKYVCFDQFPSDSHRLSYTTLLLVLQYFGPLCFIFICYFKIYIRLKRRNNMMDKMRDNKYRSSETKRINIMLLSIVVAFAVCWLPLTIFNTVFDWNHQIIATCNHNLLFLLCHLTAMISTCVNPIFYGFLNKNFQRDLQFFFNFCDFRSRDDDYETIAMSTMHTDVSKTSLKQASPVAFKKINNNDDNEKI


Columns and labels:
human NPY2 receptor [1] = biological target: T1, human NPY2 receptor; test: cell-based or functional assay
human NPY5 receptor = biological target: T2, human NPY5 receptor; test: cell-based or functional assay
human NPY4 receptor = human NPY4 receptor (human, UniProt P50391 1-375); test: cell-based or functional assay
human NPY1 receptor = biological target: T3, human NPY1 receptor; test: cell-based or functional assay
human NPY2 receptor [2] = biological target: T1, human NPY2 receptor; test: RLB: displacement of 125I-PYY(1-36) from hNPY2R membranes
human NPY2 receptor [3] = biological target: T1, human NPY2 receptor; test: RLB, apparent Ki of filtrate after incubation at pH 8.1-8.2 (assumed 10 mg/ml)
Procedure: (§1) The filtration RLB assay was carried out in 96-well plates in a final volume of 100 μl per well. Freeze-dried test peptides were dissolved in 100% dimethyl sulfoxide (DMSO) to stock solutions of 1 mM and serial dilutions were performed in assay buffer (50 mM HEPES, 5 mM MgCl₂, 1 mM CaCl₂), pH 7.4) containing 0.2% ovalbumin. […] Next, 80 μL membranes (HTS066M, ChemiSCREEN™ Human Neuropeptide Y2 Receptor Membrane Preparation, CHEMICON) were added to each well to give a final protein concentration of 0.5 μg/well. The plates were sealed and incubated at room temperature for 2 hours in a plate shaker set at 400 rpm. The incubation was stopped by vacuum filtration onto 0.5% polyethylene amine (PEI) presoaked GF/C filters using a 96-well FilterMate™ harvester (Perkin Elmer) followed by four washes with 300 μl/well ice-cold wash buffer (50 mM HEPES, 500 mM NaCl, pH7.4). Filter plates were then dried for 60 min at room temperature and the bottom of the plates was sealed with backing tape UniFilter-96. Finally, 50 μl/well scintillation counter cocktail (Microscint20, Packard) was added and the radioactivity was counted in the Packard TopCount NXT scintillation counter. IC₅₀ values (the half maximal inhibitory concentration of the agonist) were calculated by nonlinear regression analysis of sigmoidal dose-response curves.
The peptide was (partially) dissolved by shaking the filter unit horizontally at approx. 400 rpm for 2 hours at room temperature. The sample was filtered to remove any insoluble particles.

human NPY2 receptor [4] = biological target: T1, human NPY2 receptor; test: RLB (125I-PYY(1-36) displacement, hNPY2R membranes), peptide from DMSO stock
Procedure: as §1, with “curves. […]” for “curves.”

human NPY2 receptor [5] = biological target: T1, human NPY2 receptor; test: RLB, apparent Ki of filtrate after incubation at pH 6.1-6.2 (assumed 10 mg/ml)
Procedure: as §1, with “curves. […]” for “curves.”

human NPY2 receptor [6] = biological target: T1, human NPY2 receptor; test: ratio of apparent Ki, pH 8 filtrate vs pH 7 filtrate
Procedure: as §1, with “curves. […]” for “curves.”

human NPY2 receptor [7] = biological target: T1, human NPY2 receptor; test: RLB, apparent Ki of filtrate after incubation at pH 7.1-7.2 (assumed 10 mg/ml)
Procedure: as §1, with “curves. […]” for “curves.”

human NPY2 receptor [8] = biological target: T1, human NPY2 receptor; test: ratio of apparent Ki, pH 6 filtrate vs pH 7 filtrate
Procedure: as §1, with “curves. […]” for “curves.”

human NPY4 receptor, sequence (P50391 whole entry): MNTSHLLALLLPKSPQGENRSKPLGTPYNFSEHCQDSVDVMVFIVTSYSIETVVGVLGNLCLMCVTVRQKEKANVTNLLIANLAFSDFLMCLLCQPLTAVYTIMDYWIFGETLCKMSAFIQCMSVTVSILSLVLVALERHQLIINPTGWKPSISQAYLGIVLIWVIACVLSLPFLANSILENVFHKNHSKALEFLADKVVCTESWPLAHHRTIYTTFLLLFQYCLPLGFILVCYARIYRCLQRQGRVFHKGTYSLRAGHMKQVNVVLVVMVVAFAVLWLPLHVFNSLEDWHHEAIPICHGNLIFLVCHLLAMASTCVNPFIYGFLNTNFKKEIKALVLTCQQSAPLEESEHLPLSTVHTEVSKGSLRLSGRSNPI

Row | Binder | EC50, HTRF cAMP Gi assay (human NPY2 receptor [1]) | EC50, HTRF cAMP Gi assay (human NPY5 receptor) | EC50, HTRF cAMP Gi assay (human NPY4 receptor) | EC50, HTRF cAMP Gi assay (human NPY1 receptor) | Ki (human NPY2 receptor [2]) | Ki (human NPY2 receptor [3]) | Ki (human NPY2 receptor [4]) | Ki (human NPY2 receptor [5]) | RLB ratio (RLB8/RLB7) (human NPY2 receptor [6]) | Ki (human NPY2 receptor [7]) | RLB ratio (RLB6/RLB7) (human NPY2 receptor [8])
1 | Isovaleryl-APEK([Ahx-γGlu-C18 diacid])PEADATPEEIQRYYVSLRHYYNWLTRQRY-NH2 [Compound 7] | 0.143 nM | > 5000 nM | > 5000 nM | > 5000 nM | 1.04 nM | 3.1 nM | – | – | – | – | –
2 | Isovaleryl-APEK([Ahx-γGlu-C18 diacid])PEADASPEEIQRYYIALRHYYNWLTRQRY-NH2 [Compound 40] | 0.122 nM | > 5000 nM | > 5000 nM | > 5000 nM | 0.67 nM | 3.8 nM | – | – | – | 7.3 nM | –

Results, then the binder that gave them:

Row | EC50, HTRF cAMP Gi assay (human NPY2 receptor [1]) | EC50, HTRF cAMP Gi assay (human NPY5 receptor) | EC50, HTRF cAMP Gi assay (human NPY4 receptor) | EC50, HTRF cAMP Gi assay (human NPY1 receptor) | Ki (human NPY2 receptor [2]) | Ki (human NPY2 receptor [3]) | Ki (human NPY2 receptor [4]) | Ki (human NPY2 receptor [5]) | RLB ratio (RLB8/RLB7) (human NPY2 receptor [6]) | Ki (human NPY2 receptor [7]) | RLB ratio (RLB6/RLB7) (human NPY2 receptor [8]) | Binder
3 | 0.109 nM | > 5000 nM | > 5000 nM | > 5000 nM | 0.93 nM | – | 6.6 nM | – | – | – | – | Isovaleryl-APAK([Ahx-γGlu-C18 diacid])PEEDASPEEIQRYYVSLRHYYNWLTRQRY-NH2 [Compound 63]
4 | 0.13 nM | > 5000 nM | > 5000 nM | > 5000 nM | 0.67 nM | 4.9 nM | – | – | – | – | – | Isovaleryl-APEK([Ahx-γGlu-C18 diacid])PEADASPEELQRYYVALRHYYNWLTRQRY-NH2 [Compound 163]
5 | 0.168 nM | > 5000 nM | > 5000 nM | > 5000 nM | 1.48 nM | 5.7 nM | 8.7 nM | 3.9 nM | 1.4 | 4 nM | 1 | Isovaleryl-APEK([Ahx-γGlu-C18 diacid])PEEDATPEEIQRYYVSLRHYYNWLTRQRY-NH2 (SMILES CC[C@H](C)[C@H](NC(=O)[C@H](CCC(=O)O)NC(=O)[C@H](CCC(=O)O)NC(=O)[C@@H]1CCCN1C(=O)[C@@H](NC(=O)[C@H](C)NC(=O)[C@H](CC(=O)O)NC(=O)[C@H](CCC(=O)O)NC(=O)[C@H](CCC(=O)O)NC(=O)[C@@H]1CCCN1C(=O)[C@H](CCCCNC(=O)CCCCCNC(=O)CC[C@H](NC(=O)CCCCCCCCCCCCCCCCC(=O)O)C(=O)O)NC(=O)[C@H](CCC(=O)O)NC(=O)[C@@H]1CCCN1C(=O)[C@H](C)NC(=O)CC(C)C)[C@@H](C)O)C(=O)N[C@@H](CCC(N)=O)C(=O)N[C@@H](CCCNC(=N)N)C(=O)N[C@@H](Cc1ccc(O)cc1)C(=O)N[C@@H](Cc1ccc(O)cc1)C(=O)N[C@H](C(=O)N[C@@H](CO)C(=O)N[C@@H](CC(C)C)C(=O)N[C@@H](CCCNC(=N)N)C(=O)N[C@@H](Cc1c[nH]cn1)C(=O)N[C@@H](Cc1ccc(O)cc1)C(=O)N[C@@H](Cc1ccc(O)cc1)C(=O)N[C@@H](CC(N)=O)C(=O)N[C@@H](Cc1c[nH]c2ccccc12)C(=O)N[C@@H](CC(C)C)C(=O)N[C@H](C(=O)N[C@@H](CCCNC(=N)N)C(=O)N[C@@H](CCC(N)=O)C(=O)N[C@@H](CCCNC(=N)N)C(=O)N[C@@H](Cc1ccc(O)cc1)C(N)=O)[C@@H](C)O)C(C)C) [Compound 176]

Source: US20260015399A1 (Boehringer Ingelheim, published 2026)
